The target in assay [1] is CH505 TF chimeric SOSIP.III trimer (CH505TFchim.6R.SOSIP.664V4.1) (HIV-1 (CH505 gp120 / BG505 gp41 chimera)). Nature of the assay: negative stain EM; 1 to 1 ratio of CH103 and gp140.
Assay [2] has the same target. Put plainly: kinetics, method not named (FIG. 69); reference CH505 TF gp120.
Assay [3] deals with CH505 transmitted/founder (TF) gp120 (HIV-1). Nature of the assay: SPR. In general terms: Surface plasmon resonance follows binding to a sensor surface in real time, without labels.
A further assay concerns the target CH505 M11 gp120 (HIV-1). Put plainly: ELISA, gp120 on plate.
Assay [4] concerns the target CH505 transmitted/founder (TF) gp120 (HIV-1). Put plainly: ELISA, gp120 on plate. (An ELISA detects its analyte on a solid surface through an enzyme-linked reagent.)
The target in assay [5] is CH505 w020.14 gp120 (HIV-1). Nature of the assay: ELISA, gp120 on plate.
Assay [6] addresses HIV-1 Env 426c.SM (N276D), Env-pseudotyped virus produced in 293S GnTI- cells (Man5-enriched) (HIV-1 clade C strain 426c). Nature of the assay: cell-based or functional assay.
The target of assay [7] is CH0505TF.gly3.461 Env, Env-pseudotyped virus produced in 293T cells (HIV-1). Put plainly: cell-based or functional assay.
The target of assay [8] is CH0505.w4.3 Env, pseudotyped virus produced in 293S GnTI- cells (HIV-1). Nature of the assay: cell-based or functional assay.
The target of assay [9] is HIV-1 Env 426c, Env-pseudotyped virus produced in 293T cells (HIV-1 clade C strain 426c). Nature of the assay: cell-based or functional assay.
The target in assay [10] is CH0505TF.gly3.197 Env, Env-pseudotyped virus produced in 293T cells (HIV-1). Put plainly: cell-based or functional assay.
Assay [11] concerns the target HIV-1 Env 426c.DM (N460D.N463D), Env-pseudotyped virus produced in 293S GnTI- cells (Man5-enriched) (HIV-1 clade C strain 426c). Put plainly: cell-based or functional assay.
For assay [12], the target named is CH0505TF.gly4.G458Y Env, pseudotyped virus produced in 293T cells (HIV-1). Put plainly: cell-based or functional assay.
The target in assay [13] is CH0505TF.gly3.276 Env, pseudotyped virus produced in 293S GnTI- cells (HIV-1). Put plainly: cell-based or functional assay.
Assay [14] has as its target HIV-1 Env 426c.TM4 (S278R.G471S.N460D.N463D), Env-pseudotyped virus produced in 293T cells (HIV-1 clade C strain 426c). Put plainly: cell-based or functional assay.
The target in assay [15] is CH0505TF.G458Y Env, pseudotyped virus produced in 293S GnTI- cells (HIV-1). Put plainly: cell-based or functional assay.
Assay [16] addresses CH0505TF Env, Env-pseudotyped virus produced in 293T cells (HIV-1). Put plainly: cell-based or functional assay.
The target of assay [17] is CH0505TF.gly3.461 Env, pseudotyped virus produced in 293S GnTI- cells (HIV-1). Put plainly: cell-based or functional assay.
For assay [18], the target named is CH0505TF.gly3.197 Env, pseudotyped virus produced in 293S GnTI- cells (HIV-1). Put plainly: cell-based or functional assay.
For assay [19], the target named is CH0505TF.gly4 Env, Env-pseudotyped virus produced in 293T cells (HIV-1). Put plainly: cell-based or functional assay.
Assay [20] concerns the target CH0505TF.gly4.G458Y Env, pseudotyped virus produced in 293S GnTI- cells (HIV-1). Nature of the assay: cell-based or functional assay.
For assay [21], the target named is HIV-1 Env 426c.SM (N276D), Env-pseudotyped virus produced in 293T cells (HIV-1 clade C strain 426c). Put plainly: cell-based or functional assay.
For assay [22], the target named is CH0505TF.G458Y Env, Env-pseudotyped virus produced in 293T cells (HIV-1). Put plainly: cell-based or functional assay.
The target of assay [23] is HIV-1 Env 426c.TM4 (S278R.G471S.N460D.N463D), Env-pseudotyped virus produced in 293S GnTI- cells (Man5-enriched) (HIV-1 clade C strain 426c). Put plainly: cell-based or functional assay.
Assay [24] addresses CH0505TF.gly4 Env, pseudotyped virus produced in 293S GnTI- cells (HIV-1). Nature of the assay: cell-based or functional assay.
Assay [25] addresses HIV-1 Env 426c.TM (N276D.N460D.N463D), Env-pseudotyped virus produced in 293T cells (HIV-1 clade C strain 426c). Put plainly: cell-based or functional assay.
Assay [26] deals with HIV-1 Env 426c.TM (N276D.N460D.N463D), Env-pseudotyped virus produced in 293S GnTI- cells (Man5-enriched) (HIV-1 clade C strain 426c). Put plainly: cell-based or functional assay.
Assay [27] has as its target HIV-1 Env 426c.DM (N460D.N463D), Env-pseudotyped virus produced in 293T cells (HIV-1 clade C strain 426c). Put plainly: cell-based or functional assay.
In assay [28] the target is CH0505TF.gly3.276 Env, Env-pseudotyped virus produced in 293T cells (HIV-1). Put plainly: cell-based or functional assay.
Assay [29] addresses CH0505TF Env, pseudotyped virus produced in 293S GnTI- cells (HIV-1). Nature of the assay: cell-based or functional assay.
Assay [30] addresses HIV-1 Env 426c, Env-pseudotyped virus produced in 293S GnTI- cells (Man5-enriched) (HIV-1 clade C strain 426c). Nature of the assay: cell-based or functional assay.
In assay [31] the target is CH0505.w4.3 Env, Env-pseudotyped virus produced in 293T cells (HIV-1). Put plainly: cell-based or functional assay.
Assay [32] has as its target HIV-1 CH0505TF.N280D Env on Env-pseudotyped virus produced in 293S GnTI- cells (HIV-1). Put plainly: cell-based or functional assay.
The target in assay [33] is HIV-1 CH0505TF.S365P Env on Env-pseudotyped virus produced in 293T cells (HIV-1). Put plainly: cell-based or functional assay.
Assay [34] addresses HIV-1 CH0505TF.S365P Env on Env-pseudotyped virus produced in 293S GnTI- cells (HIV-1). Nature of the assay: cell-based or functional assay.
In assay [35] the target is HIV-1 CH0505TF (CH505 transmitted/founder) Env on Env-pseudotyped virus produced in 293T cells (HIV-1). Nature of the assay: cell-based or functional assay.
For assay [36], the target named is HIV-1 CH0505TF.G458Y Env on Env-pseudotyped virus produced in 293S GnTI-/- cells (Man5-enrichment) (HIV-1). Nature of the assay: cell-based or functional assay.
For assay [37], the target named is HIV-1 CH0505TF.N280D Env on Env-pseudotyped virus produced in 293T cells (HIV-1). Nature of the assay: cell-based or functional assay.
In assay [38] the target is HIV-1 CH0505TF Env on Env-pseudotyped virus produced in 293S/GnTI-/- cells (Man5-enrichment) (HIV-1). Nature of the assay: cell-based or functional assay.
Assay [39] concerns the target HIV-1 CH0505TF.G458Y Env on Env-pseudotyped virus produced in 293T cells (HIV-1). Nature of the assay: cell-based or functional assay.

Experimental findings from patent US20230140293A1 are described below.

In the case of CH103 Fab, in assay [1], the Fabs bound per trimer (Fab per trimer) was found to be 3.

“CH103 lineage unmutated common ancestor (UCA) (antibody)” displayed a fold improvement of the off-rate against CH505 TF gp120 in [2] of 10 fold. For the same substance, the Kd (as a rule, the concentration at which binding is half-saturated) in assay [3] stood at 200 nM. Moreover, the log AUC with CH505 M11 gp120 (HIV-1) was determined as 2.6 log AUC; in [4], 3.5 log AUC; in assay [5], 0.3 log AUC.

Regarding CH235.12 (antibody), the IC50 (µg/ml) in TZM-bl in assay [6] was 0.26 µg/mL; in [7], 0.003 µg/mL; in assay [8] it was 0.01 µg/mL; in assay [9], 8.95 µg/mL; in [10] it was 0.008 µg/mL; in [11], above 25 µg/mL. Besides, the IC50 (µg/ml) in TZM-bl came out at 0.005 µg/mL in [13]; 0.1 µg/mL in assay [14]; 0.003 µg/mL in [15]; 0.04 µg/mL in [16]; 0.002 µg/mL in assay [17]; 0.003 µg/mL in [18]. The IC50 (µg/ml) in TZM-bl came out at 0.001 µg/mL in assay [19]; 1.08 µg/mL in [21]; 0.014 µg/mL in [22]; 24.2 µg/mL in [23]; 0.001 µg/mL in assay [24]; 0.09 µg/mL in [25]. Moreover, the IC50 (µg/ml) in TZM-bl in assay [26] was 0.07 µg/mL; in assay [27] it was 0.66 µg/mL; in [28] it was 0.001 µg/mL; in assay [29] it was 0.015 µg/mL; in assay [30], above 25 µg/mL; in assay [31], 0.04 µg/mL. In addition, the IC50 (µg/ml) in TZM-bl in assay [32] is 0.02 µg/mL; in [33] it was 0.03 µg/mL; in assay [34], 0.01 µg/mL; in assay [35] it was 0.04 µg/mL; in assay [36], below 0.02 µg/mL; in [37], 0.06 µg/mL. Further, the values for the IC50 (µg/ml) in TZM-bl in [38] and in [39] were 0.02 µg/mL and 0.01 µg/mL, respectively. The IC50 (µg/ml) in TZM-bl cells in [12] and in [20] was below 0.005 µg/mL throughout.
